Results published in article doi:10.1101/2020.03.08.831909.

Columns and labels:
[1] = target: OptoMB_(C450V), light-insensitive, His-tagged, purified (Avena sativa) (UniProt O49003); assay: BLI
[2] = target: lit-stabilized OptoMB variant (group of the BLI measurements in the light); assay: BLI

YFP-SH2, purified (fusion of yellow fluorescent protein and SH2), sequence (P00519 121-232): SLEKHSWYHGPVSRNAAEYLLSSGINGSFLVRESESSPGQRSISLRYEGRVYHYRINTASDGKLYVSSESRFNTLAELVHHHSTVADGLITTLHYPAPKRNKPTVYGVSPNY

Kd [1]: 0.07 µM
Kd [2]: 11.2 µM
fold change of kon, dark against light [2]: < 46 fold
fold increase of koff, light against dark [2]: < 10 fold
Substance: YFP-SH2, purified (fusion of yellow fluorescent protein and SH2) (from UniProt P00519 121-232) (domain or fragment)
